Results on 91 variants are retold here after IntAct's records for PubMed 29039417.

The labels stand for the following.
B1: Protein PTHB1 (Homo sapiens), Q3SYG4 (parent)
chain: MSLFKARDWWSTILGDKEEFDQGCLCLANVDNSGNGQDKIIVGSFMGYLRIFSPHPAKTGDGAQAEDLLLEVDLRDPVLQVEVGKFVSGTEMLHLAVLHSRKLCVYSVSGTLGNVEHGNQCQMKLMYEHNLQRTACNMTYGSFGGVKGRDLICIQSMDGMLMVFEQESYAFGRFLPGFLLPGPLAYSSRTDSFLTVSSCQQVESYKYQVLAFATDADKRQETEQQKLGSGKRLVVDWTLNIGEQALDICIVSFNQSASSVFVLGERNFFCLKDNGQIRFMKKLDWSPSCFLPYCSVSEGTINTLIGNHNNMLHIYQDVTLKWATQLPHIPVAVRVGCLHDLKGVIVTLSDDGHLQCSYLGTDPSLFQAPNVQSRELNYDELDVEMKELQKIIKDVNKSQGVWPMTEREDDLNVSVVVSPNFDSVSQATDVEVGTDLVPSVTVKVTLQNRVILQKAKLSVYVQPPLELTCDQFTFEFMTPDLTRTVSFSVYLKRSYTPSELEGNAVVSYSRPTDRNPDGIPRVIQCKFRLPLKLICLPGQPSKTASHKITIDTNKSPVSLLSLFPGFASQSDDDQVNVMGFHFLGGARITVLASKTSQRYRIQSEQFEDLWLITNELILRLQEYFEKQGVKDFACSFSGSIPLQEYFELIDHHFELRINGEKLEELLSERAVQFRAIQRRLLARFKDKTPAPLQHLDTLLDGTYKQVIALADAVEENQGNLFQSFTRLKSATHLVILLIALWQKLSADQVAILEAAFLPLQEDTQELGWEETVDAAISHLLKTCLSKSSKEQALNLNSQLNIPKDTSQLKKHITLLCDRLSKGGRLCLSTDAAAPQTMVMPGGCTTIPESDLEERSVEQDSTELFTNHRHLTAETPRPEVSPLQGVSE
partner: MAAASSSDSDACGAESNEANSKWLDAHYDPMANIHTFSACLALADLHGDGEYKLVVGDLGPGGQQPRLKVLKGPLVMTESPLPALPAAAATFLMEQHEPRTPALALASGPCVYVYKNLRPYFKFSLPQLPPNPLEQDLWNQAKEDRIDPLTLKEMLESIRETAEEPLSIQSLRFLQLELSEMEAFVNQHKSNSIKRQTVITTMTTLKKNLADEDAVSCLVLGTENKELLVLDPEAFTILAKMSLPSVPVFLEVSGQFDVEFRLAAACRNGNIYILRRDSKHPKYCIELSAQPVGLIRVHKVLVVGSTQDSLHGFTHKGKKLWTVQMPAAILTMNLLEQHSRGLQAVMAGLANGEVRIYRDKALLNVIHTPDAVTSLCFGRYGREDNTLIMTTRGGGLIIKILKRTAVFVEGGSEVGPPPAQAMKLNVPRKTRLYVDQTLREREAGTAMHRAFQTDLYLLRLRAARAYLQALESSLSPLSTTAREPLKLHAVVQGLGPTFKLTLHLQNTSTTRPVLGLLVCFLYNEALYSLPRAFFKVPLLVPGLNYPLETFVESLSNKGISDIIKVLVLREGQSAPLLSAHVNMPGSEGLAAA

This assay covers variants of B1. As to conditions: with bbs1_human BBS1, Q8NFJ9.
L727K: the “effect of a mutation on the interaction” value is reported as “with no effect”. On to L727A, for which the “effect of a mutation on the interaction” value is listed as “with no effect”. With L727E the entry was “with no effect”. Turning to G718S, the “effect of a mutation on the interaction” value was “disrupting interaction strength”. The same measure for G718K: “with no effect”; for G718E: “with no effect”.

With G718A, the “effect of a mutation on the interaction” value is reported as “with no effect”.

In the case of A730E, the “effect of a mutation on the interaction” value is given as “with no effect”.

For A730K, the “effect of a mutation on the interaction” value is recorded as “with no effect”.

For the variant A710K, the “effect of a mutation on the interaction” value is listed as “with no effect”.

Consider A710E, for which the “effect of a mutation on the interaction” value was “with no effect”. D711K: the “effect of a mutation on the interaction” value is “with no effect”. In the case of D711E, the “effect of a mutation on the interaction” value is reported as “with no effect”. On to D711A, for which the “effect of a mutation on the interaction” value was “with no effect”.

With A712E, the “effect of a mutation on the interaction” value is listed as “with no effect”. The same measure for A712K: “with no effect”. For F724A, the “effect of a mutation on the interaction” value is given as “with no effect”. With F724E the entry was “with no effect”. Turning to F724K, the “effect of a mutation on the interaction” value is listed as “with no effect”. With G701K the entry was “with no effect”.

G701R: the “effect of a mutation on the interaction” value was “disrupting interaction strength”.

With N719E, the “effect of a mutation on the interaction” value is reported as “with no effect”. In the case of N719A, the “effect of a mutation on the interaction” value is recorded as “with no effect”. N719K: the “effect of a mutation on the interaction” value was “with no effect”. The same measure for Q705K: “with no effect”; for Q705M: “disrupting interaction strength”; for Q705E: “with no effect”. With Q705A the entry was “with no effect”; with E715A, “with no effect”; with E715K, “with no effect”. With L709K the entry was “with no effect”; with L709A, “with no effect”. For the variant L709E, the “effect of a mutation on the interaction” value is given as “with no effect”. Take R726A: the “effect of a mutation on the interaction” value was “with no effect”. The same measure for R726K: “with no effect”. Turning to R726E, the “effect of a mutation on the interaction” value is “with no effect”. The same measure for V713E: “with no effect”; for V713K: “with no effect”; for V713A: “with no effect”.

As for A708E, the “effect of a mutation on the interaction” value is “with no effect”. With A708K the entry was “with no effect”. For K704A, the “effect of a mutation on the interaction” value was “with no effect”. The same measure for K704E: “with no effect”; for K728E: “with no effect”. K728A: the “effect of a mutation on the interaction” value is reported as “with no effect”. In the case of T725A, the “effect of a mutation on the interaction” value is “with no effect”. With T725K the entry was “with no effect”. With T725E the entry was “with no effect”; with T702C, “disrupting interaction strength”; with T702E, “with no effect”.

Take T702K: the “effect of a mutation on the interaction” value is on record as “with no effect”. With T702A the entry was “with no effect”.

Take Y703K: the “effect of a mutation on the interaction” value was “with no effect”. Take Y703E: the “effect of a mutation on the interaction” value is recorded as “with no effect”. As for Y703A, the “effect of a mutation on the interaction” value was “with no effect”. The same measure for H732A: “with no effect”; for H732E: “with no effect”. Consider E714K, for which the “effect of a mutation on the interaction” value is “with no effect”. The same measure for E714A: “with no effect”.

Turning to N716K, the “effect of a mutation on the interaction” value is listed as “with no effect”. Regarding N716E, the “effect of a mutation on the interaction” value is recorded as “with no effect”. With N716A the entry was “with no effect”; with S723E, “with no effect”. As for S723K, the “effect of a mutation on the interaction” value is recorded as “with no effect”. The same measure for S723A: “disrupting interaction strength”; for I707K: “with no effect”; for I707A: “with no effect”.

With I707E, the “effect of a mutation on the interaction” value is on record as “with no effect”. With V706A the entry was “with no effect”; with V706E, “with no effect”.

As to V706K, the “effect of a mutation on the interaction” value is on record as “with no effect”. The same measure for T731A: “with no effect”; for T731E: “with no effect”.

As to T731K, the “effect of a mutation on the interaction” value was “with no effect”. As to Q717A, the “effect of a mutation on the interaction” value is given as “with no effect”.

In the case of Q717E, the “effect of a mutation on the interaction” value was “with no effect”. Consider Q717K, for which the “effect of a mutation on the interaction” value is on record as “with no effect”. The same measure for Q722A: “with no effect”. The same measure for Q722E: “with no effect”; for Q722K: “with no effect”. With Q722T the entry was “disrupting interaction strength”. Regarding F721S, the “effect of a mutation on the interaction” value is listed as “disrupting interaction strength”. With F721E the entry was “with no effect”; with F721K, “with no effect”. Regarding F721A, the “effect of a mutation on the interaction” value is reported as “with no effect”.

For S729E, the “effect of a mutation on the interaction” value is reported as “with no effect”. Consider S729A, for which the “effect of a mutation on the interaction” value was “with no effect”. The same measure for S729K: “with no effect”. The same measure for L720A: “with no effect”; for L720K: “with no effect”; for L720E: “with no effect”.
